According to patent US9202600B2, “Method for production of radioisotope preparations and their use in life science, research, medical application and industry” (priority 2005, dated 2015):
Entries after “also recorded” stand apart in the source; their conditions may differ.

Key:
[1] = tested on: Daudi cells; experiment: Survival of SCID mice i.v. xenografted with Daudi cells (leukemia model) after immunotherapy or radioimmunotherapy; format: in vivo; settings: for protection / disease status over 120 days observation: 5.5 MBq 149Tb-labeled Rituximab (5 μg), single i.v. injection
Procedure: Daudi cells (ATCC Nr. CCL-213) were used to simulate a leukemia model in mice. The cells were cultured in RPMI 1640 medium supplemented with 10% heat-inactivated fetal calf serum and 0.5% penicillin (10000 U/ml)/streptomycin (10 mg/ml) (Sigma-Aldrich). The cell suspension to be injected into mice was prepared by centrifuging the culture for 3 min at 1200 rpm, washing with PBS and re-suspending in PBS at 2.5-10^7 cells per ml.
(§1) The in vivo studies were performed using 26 female SCID mice (C.B.-17/ICR, Iffa Credo) under the authorization Nr: GE 31.1.1049/1879/11. The mice, which were 8 weeks old at the start of the experiment and weighed 20 g on average, were kept in sterile, ventilated boxes. […] Each mouse received 5-10^6 Daudi cells by injection of 0.2 ml cell suspension in PBS into the tail vein. […] According to the authorized protocol the mice were surveyed for 120 days: their behavior was logged each day, their condition was supervised once a week by a veterinarian, and they were weighed three times a week. At the appearance of obvious signs of paralysis, visible tumor masses, or a weight loss of >15%, the mice were sacrificed. One mouse was sacrificed shortly after injection (2 h p.i.) and kept deep-frozen for later analysis, in order to act as a reference for later quantification of the daughter radioactivity distribution.
The survival of animals until sacrifice because of disease development or the end of the experiment (no disease development) was compared between the different groups according a Kaplan Meier analysis using the Lee-Desu evaluation of the Unistat 3.0 statistical package (Megalon, Novato Calif., USA).

[2] = biological target: T1, CD20 (Homo sapiens, UniProt P11836); experiment: Cell binding of the labeled antibody; format: cell-based; settings: without extrapolation to infinite antigen excess
T1 construct: endogenous in cells
T1 sequence (P11836 1-297): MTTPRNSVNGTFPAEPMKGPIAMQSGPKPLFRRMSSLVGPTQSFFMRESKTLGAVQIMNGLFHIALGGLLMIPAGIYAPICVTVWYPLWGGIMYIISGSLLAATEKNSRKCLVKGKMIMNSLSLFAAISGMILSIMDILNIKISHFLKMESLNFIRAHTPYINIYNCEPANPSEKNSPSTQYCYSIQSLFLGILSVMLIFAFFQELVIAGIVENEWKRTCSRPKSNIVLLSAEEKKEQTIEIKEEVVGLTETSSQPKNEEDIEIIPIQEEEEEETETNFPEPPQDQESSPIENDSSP
Procedure: 25-40 μl of the ^149Tb solution characterized above was used immediately for the labeling procedure. The pH was adjusted to 5.5 by adding 60 μl of 3 M CH3COONH4 solution, followed by the addition of 10 μl (40 mg/ml) ascorbic acid. After adding 5 μl of a stock solution of the chelated antibody in PBS (10 mg/ml) the mixture was incubated for 10 min at room temperature, before dilution to a final volume of 1.0 ml in PBS-1% human serum. […] The injection of the radioimmuno-conjugate into the mice was performed 1 h after EOS. The in vitro behavior of the labeled bioconjugate (immunoreactivity, cell binding, cell killing efficiency) has been described in a previous paper [Vranjes S D, Miederer M, Comor J J, Soloviev D, Beyer G-J and the ISOLDE collaboartion. Labeling of monoclonal antibodies with 149-Th for targeted alpha therapy. J Lab Comp Radiopharm 2001; 44:718-720]. With the same antibody the inventors observed up to 55% cell binding without extrapolation to infinite antigen excess.

[3] = Daughter nuclide ingrowth and shelf-life of the 149Tb-labeled bioconjugate; format: physicochemical; settings: for increase of the long-lived daughter content, factor: fixed dose applied 4 hours after the final purification of the isotope (EOS)
Procedure: Spallation reaction in combination with on line mass separator technology was used for the production of ^149Tb for this study. The radiochemical separation and purification of the […] was relatively easy to perform in about 30 minutes in this specific case, since the inventors started from non-carrier added preparations. The final ^149Tb preparation was obtained in very high purity and in a small volume, the labeling of the bioconjugate was fast (10 minutes) and almost quantitative. The administration of the preparation should be carried out as rapidly as possible after purification of the ^149Tb, since levels of contamination with daughter nuclides will increase with time. For example, application of a fixed dose of the ^149Tb-labeled bioconjugate 4 hours after the final purification of the isotope itself (EOS) leads to an increase of the long-lived daughter content by a factor of 2. According to the preliminary dose estimation one could define a shelf-life for the labelled ^149Tb-labeled bioconjugate of about 4-6 hours. For a longer delay it would be advisable to repurify the ^149Tb from the accumulated daughter products, a process that could be expected to require 30 minutes.

[4] = Biodistribution of 149Tb-labeled Rituximab and retention of long-lived daughter radioactivity (gamma spectroscopy of organs); format: in vivo, SCID mice; settings: for Biodistribution, Liver: SCID mouse, 2 h p.i. (i.v.)
Procedure: as §1
Organ samples were taken from the sacrificed mice and the radioactivity concentration of the long-lived daughter products was determined by using high-resolution gamma spectroscopy (18% HP—Ge detector in combination with the Gamma spectrometer Genie 2000, Canberra). Whole, intact mice, as well as isolated organ samples were measured. Since the radioactivity content of the samples was essentially very low, long measuring times (between 1 and 24 hours) were applied.

[5] = listed as 149Tb-CHX-A-DTPA-Rituximab
[6] = Group 3, 5 μg 149Tb-labeled Rituximab (5.55 MBq) i.v. 2 days after Daudi cell inoculation
[7] = 2 h p.i., listed as 149Tb-CHX-A-DTPA-Rituximab

^149Tb-labeled Rituximab
time after which the only mouse of the group was lost (abdominal tumor growth) ([1]; 5.5 MBq 149Tb-labeled Rituximab (5 μg Rituximab per animal)): 48 days | protection / disease status over 120 days observation [1]: almost complete protection; also recorded: long-term survival without evidence of any disease at 120 days | protection / disease status over 120 days observation [1, 5]: without any visible signs of a disease | protection / disease status over 120 days observation ([1]; listed as 149Tb-CHX-DTPA-Rituximab): almost completely protected | Follow-up (120 days after the therapy): no pathologic changes [1, 6]: 89% no | Follow-up (120 days after the therapy): paralyzed, abdominal tumor [1, 6]: 11% paralyzed, | tumor free survival for >120 days, share of treated animals ([1]; SCID mice, single i.v. 5.5 MBq labeled conjugate (5 μg Rituximab) 2 days after i.v. graft of 5·10^6 Daudi cells): 89% | signs of toxicity over four months ([1]; xenografted SCID mice treated with 149Tb-labeled Rituximab): without detectable signs of toxicity | cell binding [2]: up to 55% | shelf-life ([3]; defined according to the preliminary dose estimation): 4 to 6 h | increase of the long-lived daughter content, factor ([3]; listed as 149Tb labeled bioconjugate): increase the activity of the daughter product be by a factor 2. In this way | increase of the long-lived daughter content, factor ([3]; listed as 149Tb-labeled bioconjugate): 2 | Biodistribution, Body total ([4]; 2 h p.i.): 100 % i.d./Organ | Biodistribution, Bone ([4]; 2 h p.i.): 9.1 ± 0.7 %/g tissue | Biodistribution, Muscles ([4]; 2 h p.i.): <0.2 %/g tissue | Biodistribution, Bone ([4]; 2 h p.i., bone total calculated as 9 × both femur activity): 13 ± 1 % i.d./Organ | Biodistribution, Kidney ([4]; 2 h p.i., both kidneys measured together, listed as 149Tb-CHX-A-DTPA-Rituximab): 24 %/g tissue | Biodistribution, Heart [4, 7]: 41 %/g tissue | Biodistribution, Spleen [4, 7]: 42 %/g tissue | share of the retained daughter activity located in bone tissue ([4]; 120 days after injection): 91.1% | Remaining daughter radioactivity, Blood ([4]; 120 d p.i.): <0.01 % i.d./Organ | Remaining daughter radioactivity, Body total (retention of the long-lived daughter products) ([4]; 120 d p.i.): 28.4 ± 4 % i.d./Organ | Remaining daughter radioactivity, Bone ([4]; 120 d p.i.): 13 ± 2 %/g tissue | Remaining daughter radioactivity, Heart ([4]; 120 d p.i.): <0.01 % i.d./Organ | Remaining daughter radioactivity, Lung ([4]; 120 d p.i.): <0.01 % i.d./Organ | Remaining daughter radioactivity, Muscles ([4]; 120 d p.i.): <0.02 % i.d./Organ | Remaining daughter radioactivity, Bladder ([4]; 120 d p.i., bladder measured with urine): <0.01 % i.d./Organ | Remaining daughter radioactivity, Bone ([4]; 120 d p.i., bone total calculated as 9 × both femur activity): 26 ± 4 % i.d./Organ | Remaining daughter radioactivity, Body total (retention of the long-lived daughter products) ([4]; 120 d p.i., listed as 149Tb-CHX-A-DTPA-Rituximab): 28.4±4 % i.d./Organ | Remaining daughter radioactivity, Body total (retention of the long-lived daughter products) ([4]; 120 d p.i., listed as labeled antibody conjugate): 28.4±4 % i.d./Organ | Biodistribution, Liver [4]: 18 ± 3 % i.d./Organ | Biodistribution, Liver [4, 5]: 18±3 % i.d./Organ | primary injected radioactive atoms excreted from the mice ([4]; after 120 days): 71.6%
